Experimental findings from the nanobody polyreactivity screen of Harvey et al. (2022) are described below.

A short description of the data set: yeast display, Sf9 membrane polyspecificity reagent, FACS + sequencing; frameworks hold sequencing errors. Put shortly:
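A nanobody's polyreactivity label depends on the gate it was sorted from. Yeast display cells were stained with 10% biotinylated, detergent-solubilized Sf9 membrane reagent for 1 hour at 4 °C, enriched on streptavidin microbeads and sorted by FACS. The low and high (top ~1%) gates were set on anti-HA fluorescence for expression and streptavidin fluorescence for reagent binding.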
Turning to “QVQLVESGGGLVQAGGSLRLSCAASGITFYIYAMGWYRQAPGKERELVAAISDDGSTHYADSVKGRFTISRDNAKNTVYLQMNSLTPEDTAVYYCNADDDWFFDFFDYDYWGQGTQVTVSS”, the “polyreactivity (PSR sort gate)” value is listed as “low polyreactivity”.

With “QVQLVESGGGLVQAGGSLRLSCAASGITFYKYAKGWYRQAPGKERELVAAISRSGTTTYYADSVKGRFTISRDNAKNTVYLQMNSLKPEDTAVYYCNTVNWLTLNDRYYYWGQGTQVTVSS”, the “polyreactivity (PSR sort gate)” value is given as “high polyreactivity”.

On to “QVQLVESGGGLVQAGGSLRLSCAASGITFYKYVMGWYRQAPGKERELVAAITYSGGSTYYADSVKGRFTISRDYAKNTVYLQMYSLKPEDTAVYYCAKRRPALRWIYYYWGQGTQVTVSS”, for which the “polyreactivity (PSR sort gate)” value is “high polyreactivity”.

Regarding “QVQLVESGGGLVQAGGSLRLSCAASGITFYLYAMGWYRQAPGKERELVAAISRGGSTNYADSVKGRFTISRDNAKNTVYLQMNSLKPEDTAVYYCAAVDRYGFGYWGQGTQVTVSS”, the “polyreactivity (PSR sort gate)” value is given as “high polyreactivity”.

Regarding “QVQLVESGGGLVQAGGSLRLSCAASGITFYPYAMGWYRQAPGKERELVAAISWRSGSTNYADSVKGRFTISRDNAKNTVYLQMNSLKPEDTAVYYCNFDKVTSWYYYGYWGQGTQVTVSS”, the “polyreactivity (PSR sort gate)” value was “low polyreactivity”.

In the case of “QVQLVESGGGLVQAGGSLRLSCAASGITFYQYAMGWYRQAPGKERELVAGINSGGSTNYADSVKGRFTISRDNAKNTVYLQMNSLKPEDTAVYYCAAPWGWARRYRVYGGYYWGQGTQVTVSS”, the “polyreactivity (PSR sort gate)” value is reported as “high polyreactivity”.

For the sequence “QVQLVESGGGLVQAGGSLRLSCAASGITFYRKAMGWYRPAPGKEREFVAAINYGGSSTRYADSVKGRFTISRDYAKNTVYLQMNSLKPEDTAVYYCAVEKRYPRRRYDYWGQGTQVTVSS”, the “polyreactivity (PSR sort gate)” value was “low polyreactivity”.

For “QVQLVESGGGLVQAGGSLRLSCAASGITFYRNAMGWDRQAPGKERELVAAISSRGGRTYYADSVKGRFTISRDNAKNTVYVQMNSLKPEDTAVYYCAKGGKVGSTLEYDYWGQGTQVTVST”, the “polyreactivity (PSR sort gate)” value is given as “high polyreactivity”.

For the sequence “QVQLVESGGGLVQAGGSLRLSCAASGITFYRNAMGWYRQAPGKERELVAAISRRGGITRYADSVKGRFTISRDNAKNTVYLQMNSLKPEDTAVYYCAVAVNGVSRIKYYYWGQGTQVTVSS”, the “polyreactivity (PSR sort gate)” value is “high polyreactivity”.

Regarding “QVQLVESGGGLVQAGGSLRLSCAASGITFYRYALGWYRQAPGKERELVAAISSSGGSTYYADSVKGRFTISRDNAKNTVYLQMNSLKPEDTAVYYCATDSLYDYWGQGTQVTVSS”, the “polyreactivity (PSR sort gate)” value is reported as “high polyreactivity”.

As to “QVQLVESGGGLVQAGGSLRLSCAASGITFYRYGMGWYRQAPGKARELVAAITYNGGGTYYADSVKGRFTISRDNAKNTVYLQMNSLKPEDTAVYYCNARYYRKYDYWGQGTQVTVSS”, the “polyreactivity (PSR sort gate)” value is on record as “high polyreactivity”.

“QVQLVESGGGLVQAGGSLRLSCAASGITFYRYGMGWYRQAPGKERELVAAITSRGGSTSYADSVKGRFTISRDNAKNTVYLQMNSLKPEDTAVYYCAAFYRRDYDYWGQGTQVTVSS”: the “polyreactivity (PSR sort gate)” value is recorded as “high polyreactivity”.

As to “QVQLVESGGGLVQAGGSLRLSCAASGITFYRYTMGWYRQAPGKERELVAAIRSGGSTYYADSVKGRFTISRDNAKNTVYLQMNSLKPEDTAVYYCAAPYYRYNVPYYGGNGGDYWGQGTQVTVSS”, the “polyreactivity (PSR sort gate)” value is listed as “high polyreactivity”.

Consider “QVQLVESGGGLVQAGGSLRLSCAASGITFYSYAMGWYRQAPGKERELVAAISSSGTTYYADSVKGRFTISRDNAKNTVYLQMNSLKPEDTAVYYCATDYSLGWYQDSDGGYQFDYWGQGTQVTVSS”, for which the “polyreactivity (PSR sort gate)” value is “high polyreactivity”.

Consider “QVQLVESGGGLVQAGGSLRLSCAASGITFYTNAMGWYRQAPGKERELVAAISSGDSTNYADSVKGRFTISRDNAKNTVYLQMNSLKPEDTAVYYCAKEATQLVWIGMDYWGQGTQVTVSS”, for which the “polyreactivity (PSR sort gate)” value is given as “low polyreactivity”.

Regarding “QVQLVESGGGLVQAGGSLRLSCAASGITFYVNAMGWYRQAPGKERELVAAITQSVDITSYADSVKGRFTISRDNAKNTVYLQMNSLKPEDTAVYYCATRGIPDDNARDYWGQGTQVTVSS”, the “polyreactivity (PSR sort gate)” value is given as “low polyreactivity”.

Regarding “QVQLVESGGGLVQAGGSLRLSCAASGITFYVNAMGWYRQAPGKERELVASISTGGSTNYADSVKGRFTISRDNAKNTVYLQMNSLKPEDTAVYYCAARVDYHPSLRDYWGQGTQVTVSS”, the “polyreactivity (PSR sort gate)” value is “low polyreactivity”.

In the case of “QVQLVESGGGLVQAGGSLRLSCAASGITFYVYALRWYRQAPGKERELVASISWIGGRTYYADSVKGRFTISRDNAKNTVYVQMNSLKPEDTAVYYCAARAYSYWSGLDYWGQGTQVTVSS”, the “polyreactivity (PSR sort gate)” value was “high polyreactivity”.

Consider “QVQLVESGGGLVQAGGSLRLSCAASGITFYVYDMGWYRQAPGKERELVAAISWSGGSTYYADSVKGRFTISRDNAKNTVYLQMNSLKPEDTAVYYCAAEVEYWYELYDYWGQGTQVTVSS”, for which the “polyreactivity (PSR sort gate)” value is given as “high polyreactivity”.

For the sequence “QVQLVESGGGLVQAGGSLRLSCAASGITFYWYAMGWYRQAPGKERELVAAISSGGSTYYADSVKGRFTISRDNAKNTVYLQMNSLKPEDTAVYYCAAAFRYTPLSDHGYWGQGTQVTVSS”, the “polyreactivity (PSR sort gate)” value is “high polyreactivity”.

For “QVQLVESGGGLVQAGGSLRLSCAASGITFYYYAMGRYRQAPGKERELVAAIDTDGSTYYADSVKGRFTISRDNAKNTVYLQMNSLKPVDTAVYYCNAVGSRRSIPRVYYWGQGTQVNVSS”, the “polyreactivity (PSR sort gate)” value is “high polyreactivity”.

As to “QVQLVESGGGLVQAGGSLRLSCAASGITFYYYAMGWYRQAPGKERELVAAINWSGTSTYYADSVKGRFTISRDNAKNTVYLQMNSLKPEDTAVYYCNAERGRSFWWAYDYWGQGTQVTVSS”, the “polyreactivity (PSR sort gate)” value is “low polyreactivity”.

As for “QVQLVESGGGLVQAGGSLRLSCAASGITFYYYARGWYRQAPGKERELVAAINSGGITNYADSVKGRFTISRDNAKNTVFLQMNSLKPEDTAVYYCAASSGFRYRYGYWGQGTQVTVSS”, the “polyreactivity (PSR sort gate)” value is on record as “high polyreactivity”.

For the sequence “QVQLVESGGGLVQAGGSLRLSCAASGITFYYYTMGWYRTAPGKEREFVAVISGSGGSTYYADSVKGRFTISRDNAKNTVYLQMNSLKPEDTAVYYCAARNSFLAYFVGLIQEDDYWGQGTQVTVSS”, the “polyreactivity (PSR sort gate)” value was “high polyreactivity”.

On to “QVQLVESGGGLVQAGGSLRLSCAASGITIAGYAMGWYRQAPGKERELVAAITIGGRTYYADSVKGRFTISRDNAKNSVYLQMNSLKPEDTAVYYCAGVVRALTIKYGYWGQGTQVTVSS”, for which the “polyreactivity (PSR sort gate)” value is “high polyreactivity”.

Turning to “QVQLVESGGGLVQAGGSLRLSCAASGITIGYNAMGWYRQAPGKERELVATIRSGGSTYYADSVKGRFTISRDNAQKTVYLQMNSLKPEDTAVYYCNRDGYYYSTFDFDYWGQGTQVTVSS”, the “polyreactivity (PSR sort gate)” value is given as “low polyreactivity”.

With “QVQLVESGGGLVQAGGSLRLSCAASGITIKYYTMGWYRQANGKERELVAAISRSGGSTYYADSVKGRFTISLDNAKNTVYLQMNSMIPEDTAVYYCAAERVAYRGVTFPYGYWGQGTQVTVSS”, the “polyreactivity (PSR sort gate)” value is reported as “high polyreactivity”.

For “QVQLVESGGGLVQAGGSLRLSCAASGITIPVYLGWYRQAPGKETELVAAISSGGSTYADSVKGRFTISRDNAKNTVYLQMNSLKPEDTAVYYCNADRWFGNYLHLTFLNDYWGQGTQVTVSS”, the “polyreactivity (PSR sort gate)” value was “low polyreactivity”.

For the sequence “QVQLVESGGGLVQAGGSLRLSCAASGITIREYAMGWYRQAPGKERELVASISGGGGSTSYADSVKGRFTISRDNAKNTVYLQMNSLKPEDTAVYYCATRYAIAGWVGYYYWGQGTQVTVSS”, the “polyreactivity (PSR sort gate)” value is on record as “low polyreactivity”.

As for “QVQLVESGGGLVQAGGSLRLSCAASGITIRRYAMGWYRQAPGKERELVAAISTSGGGTYYADSVKGRFTISRDNAKYTVYLQMNSLKPEDTAVYYCAARYLGYLLSGYPPYDYWGQGTQVTVSS”, the “polyreactivity (PSR sort gate)” value is “high polyreactivity”.

In the case of “QVQLVESGGGLVQAGGSLRLSCAASGITISWYAMGWYRQAPGKERELVAAITRTAGTNYADSVKGRFTISRDNAKNTVYLQMNSLKPEDTAVYYCAAVGHGGLLYWRNYGYGYWGQGTQVTVSS”, the “polyreactivity (PSR sort gate)” value was “low polyreactivity”.

For “QVQLVESGGGLVQAGGSLRLSCAASGITIVNYVMGWYRQAPGKERELVAAISLGGGTYYADSVKGRFTISRDNAKNTVYLQMNSLKADDTAVYYGNASYGGLAFYIGVYVTGYDYWRQGTQVTVSS”, the “polyreactivity (PSR sort gate)” value is “low polyreactivity”.

For “QVQLVESGGGLVQAGGSLRLSCAASGITIVYYTMGWYIQAPGKERELVASITWDGGSTYYADSVKGRFTISRDNAKNTVYLQMNSLKPEDTAVYYCNRDRVSGGKYNYWGQGTQVTVSS”, the “polyreactivity (PSR sort gate)” value was “low polyreactivity”.

As to “QVQLVESGGGLVQAGGSLRLSCAASGITIYGNAMGWYRQAPGKERELVAAITFSGGITYYADSVKGRFTISRDNAKNTVYLQMNSLKPEDTAVYYCATDPIGGWTRPQRYGDDYWGQGTQVTVSS”, the “polyreactivity (PSR sort gate)” value is reported as “low polyreactivity”.

On to “QVQLVESGGGLVQAGGSLRLSCAASGITIYGYAMGWYRQAPGKERELVAAITRSGGRTYYADSVKGRFTISRDNAKNTVYLQMNSLKPEDTAVYYCAKDMNDETAPYYYWGQGTQVTVSS”, for which the “polyreactivity (PSR sort gate)” value was “high polyreactivity”.

Take “QVQLVESGGGLVQAGGSLRLSCAASGITLAIYAMGWYRQAPGKERELVAAISSSGASTYYADSVKGRFTISRDNAKNTVYILMNSLKPEDTAVYYCAAAYGGSSYEYNYWGQGTQVTVSS”: the “polyreactivity (PSR sort gate)” value is on record as “low polyreactivity”.

Regarding “QVQLVESGGGLVQAGGSLRLSCAASGITLAWYAMGWYRQAPGKERELVAAINSGGSTYYADSVKGRFTISRDNAKNTVYLQMNSLKPEDTAVYYCKTDDDSSSTGYYSWGQGTQVTVSS”, the “polyreactivity (PSR sort gate)” value was “low polyreactivity”.

Turning to “QVQLVESGGGLVQAGGSLRLSCAASGITLFGYAMGWYRQAPGKERELVAVITSDGGRTYYADSVKGRFTISRDNAKNTVYLQMNSLKPEDTAVYYCAARAYDRTSGYYYWGQGTQVTVSS”, the “polyreactivity (PSR sort gate)” value is given as “low polyreactivity”.

Consider “QVQLVESGGGLVQAGGSLRLSCAASGITLFGYTMGWYRQAPGKERELVAAIRRRGVSTYYADSVKGRFTISRDNAKNTVYLQMNSLKPEDTAVYYCAKSLKPYTDYDYWGQGTQVTVSS”, for which the “polyreactivity (PSR sort gate)” value is “high polyreactivity”.

As for “QVQLVESGGGLVQAGGSLRLSCAASGITLFHYVKGWYRQAPGKERELVADITWRGGNTFYADSVKGRFTISRDNAKNTVYLQMNSLKPEDTAVYYCAVRQAYRTRDYDYWGQGTQVTVSS”, the “polyreactivity (PSR sort gate)” value is recorded as “high polyreactivity”.

As for “QVQLVESGGGLVQAGGSLRLSCAASGITLFHYVMGWYRQAPGKERELVAVISSSGGSTYYADSVKVRFTISRDNAKNSVYLHMNSLKQVDTAVYYGAAKRYNYWGQGTQVTVSS”, the “polyreactivity (PSR sort gate)” value is “high polyreactivity”.
